Experiment [1] deals with CPR Wolfebacteria Fe-SodFM1, wild type (CPR Wolfebacteria (uncultured bacterial candidate phyla radiation)). Briefly: SEC; analytical size exclusion chromatography, Superdex 200 10/300 increase, 20 mM Tris pH 7.5, 150 mM NaCl, calibrated with molecular weight standards.
For experiment [2] the target is unchanged. Briefly: crystal structure; sitting drop vapour diffusion at 20 °C; 100 mM sodium acetate trihydrate pH 4.5, 25% wt/vol polyethylene glycol 3350; data collected at 100 K.

For orientation: stoichiometry N means a count of units in the complex or per binding partner.

Consider “CPR Wolfebacteria Fe-SodFM1, wild type (enzyme)”, for which the stoichiometry N in experiment [1] and in experiment [2] was 2 in each case.

(Values after publication PMC10172142.)
